We go through 10 molecules from PMC7587174, “ACE Inhibitory Activity and Molecular Docking of Gac Seed Protein Hydrolysate Purified by HILIC and RP-HPLC” (Molecules, 2020).

Read-outs that look alike come from different tables or passages of the source. Residues, ends and D or L forms follow the SMILES beside them. No end group written: not given here.

As a reminder, the IC50 is the concentration needed to halve the response being measured.

Assay [1] has as its target angiotensin I-converting enzyme (ACE) (Homo sapiens, UniProt P12821). Description: In vitro ACE inhibitory assay (HHL substrate, RP-HPLC detection). The assay is classed as biochemical. Conditions: synthetic peptides, purity >95%; HHL substrate 2.5 mM (30 µL), ACE 0.05 mU/µL (20 µL), pre-incubation 37 °C 5 min, incubation 37 °C 30 min; HPLC-UV 228 nm; non-linear regression, nine concentrations, repeated three times; read-out: IC50 of synthetic peptides against ACE. On the procedure:
The method to determine the ACE inhibitory activity of gac seeds peptides hydrolysate was adapted according to a previous report with slight modification. Briefly, the sample dissolved in ddH2O (10 µL) was added to 2.5 mM hippuryl-L-histidyl-L-leucine (30 µL). Borate buffer (10 µL) was used as blank solution. In total, 50 µM Captopril (10 µL) was used as positive control. The samples, blank, and positive control were incubated at 37 °C for 5 min. Then, 0.05 mU/µL of ACE (20 µL) was added into each solution. The reaction mixture was incubated at 37 °C for 30 min and mixed in a shaker incubator at 200 rpm for 30 min. The reaction was stopped by adding 1 N HCl (60 µL). After, 0.25 mg/mL ferulic acid (10 µL) was added as an internal standard. Samples were centrifuged (Hitachi Koki Co., Ltd., Tokyo, Japan) at 15,000 rpm for 2 min. The samples were separated by RP-HPLC using a C18 column (4.6 mm × 250 mm, particle size 5 µm) (Macherey-Nagel, Duren, Germany). Samples were selected using an isocratic gradient of 95% solvent A and […] solvent B at a flow rate of 1 mL/min. Solvent A was prepared by 5% acetonitrile + 0.1% trifluoroacetic acid and solvent B was prepared by 95% acetonitrile + 0.1% trifluoroacetic acid. Absorbance was measured using a UV detector at 228 nm. ACE inhibitory activity (%) was examined in triplicate and calculated according to the following equation:ACE-inhibitory activity (%) = [1 − (ΔAinhibition)/(ΔAcontrol)] × 100%, where ΔAinhibition and ΔAcontrol are the peak areas in the sample with or without inhibitor.
The definition of IC50 is the peptide concentration required to inhibit 50% of angiotensin-converting enzyme. The IC50 was calculated using non-linear regression of the ACE inhibitory activity (%) from nine different concentrations. This assay was repeated three times for each experiment.

In assay [2] the target is T1, ACE (Homo sapiens, UniProt P12821). Description: Kinetics of ACE inhibition (Lineweaver-Burk plot). Particulars: with increasing ALVY concentration. The assay is classed as biochemical. On the procedure:
Kinetics of ACE inhibition was determined by a previous method with some modifications. The hydrolysis rate of HHL by ACE over a range of HHL concentrations of 0.005, 0.1, 0.5, 1, and 2 mM was measured while varying the concentrations of ALVY. The modes of ACE inhibition were determined from Lineweaver-Burk plots while inhibition parameters (Vmax and Km) were calculated, respectively, as the Y- and X-axis intercepts of the primary plot.

The target of assay [3] is T1, ACE. Details: method as in 6 sources, ref 38 = [38]; PMID 31264418; doi:10.1021/acs.jafc.9b01922; 38. Shih Y.H. Chen F.A. Wang L.F. Hsu J.L. Discovery and study of novel antihypertensive peptides derived from cassia obtusifolia seeds J. Agric. Food Chem. 2019 67 7810 7820 10.1021/acs.jafc.9b01922 ||| ref 39 = [39]; PMID 26948626; doi:10.1016/j.foodchem.2016.02.097; 39. Gangopadhyay N. Wynne K. O’Connor P. Gallagher E. Brunton N.P. Rai D.K. Hayes M. In silico and in vitro analyses of the angiotensin-I converting enzyme inhibitory activity of hydrolysates generate ||| ref 40 = [40]; PMID 26344130; doi:10.1016/j.jprot.2015.08.018; 40. Priyanto A.D. Doerksen R.J. Chang C.-I. Sung W.-C. Widjanarko S.B. Kusnadi J. Lin Y.-C. Wang T.-C. Hsu J.-L. Screening, discovery, and characterization of angiotensin-I converting enzyme inhibitor ||| ref 41 = [41]; PMID 29112398; doi:10.1021/acs.jafc.7b04522; 41. Orio L.P. Boschin G. Recca T. Morelli C.F. Ragona L. Francescato P. Arnoldi A. Speranza G. New ACE-inhibitory peptides from hemp seed ( Cannabis sativa L.) proteins J. Agric. Food Chem. 2017 65 10 ||| ref 42 = [42]; PMID 21381782; doi:10.1021/jf104998s; 42. Yang R. Zou Y. Yu N. Gu Z. Accumulation and identification of angiotensin-converting enzyme inhibitory peptides from wheat germ J. Agric. Food Chem. 2011 59 3598 3605 10.1021/jf104998s 21381782 ||| ... Particulars: cited from earlier work.

Assay [4] deals with Angiotensin I-converting enzyme (UniProt P12821).
Angiotensin I-converting enzyme, sequence (P12821 30-1306): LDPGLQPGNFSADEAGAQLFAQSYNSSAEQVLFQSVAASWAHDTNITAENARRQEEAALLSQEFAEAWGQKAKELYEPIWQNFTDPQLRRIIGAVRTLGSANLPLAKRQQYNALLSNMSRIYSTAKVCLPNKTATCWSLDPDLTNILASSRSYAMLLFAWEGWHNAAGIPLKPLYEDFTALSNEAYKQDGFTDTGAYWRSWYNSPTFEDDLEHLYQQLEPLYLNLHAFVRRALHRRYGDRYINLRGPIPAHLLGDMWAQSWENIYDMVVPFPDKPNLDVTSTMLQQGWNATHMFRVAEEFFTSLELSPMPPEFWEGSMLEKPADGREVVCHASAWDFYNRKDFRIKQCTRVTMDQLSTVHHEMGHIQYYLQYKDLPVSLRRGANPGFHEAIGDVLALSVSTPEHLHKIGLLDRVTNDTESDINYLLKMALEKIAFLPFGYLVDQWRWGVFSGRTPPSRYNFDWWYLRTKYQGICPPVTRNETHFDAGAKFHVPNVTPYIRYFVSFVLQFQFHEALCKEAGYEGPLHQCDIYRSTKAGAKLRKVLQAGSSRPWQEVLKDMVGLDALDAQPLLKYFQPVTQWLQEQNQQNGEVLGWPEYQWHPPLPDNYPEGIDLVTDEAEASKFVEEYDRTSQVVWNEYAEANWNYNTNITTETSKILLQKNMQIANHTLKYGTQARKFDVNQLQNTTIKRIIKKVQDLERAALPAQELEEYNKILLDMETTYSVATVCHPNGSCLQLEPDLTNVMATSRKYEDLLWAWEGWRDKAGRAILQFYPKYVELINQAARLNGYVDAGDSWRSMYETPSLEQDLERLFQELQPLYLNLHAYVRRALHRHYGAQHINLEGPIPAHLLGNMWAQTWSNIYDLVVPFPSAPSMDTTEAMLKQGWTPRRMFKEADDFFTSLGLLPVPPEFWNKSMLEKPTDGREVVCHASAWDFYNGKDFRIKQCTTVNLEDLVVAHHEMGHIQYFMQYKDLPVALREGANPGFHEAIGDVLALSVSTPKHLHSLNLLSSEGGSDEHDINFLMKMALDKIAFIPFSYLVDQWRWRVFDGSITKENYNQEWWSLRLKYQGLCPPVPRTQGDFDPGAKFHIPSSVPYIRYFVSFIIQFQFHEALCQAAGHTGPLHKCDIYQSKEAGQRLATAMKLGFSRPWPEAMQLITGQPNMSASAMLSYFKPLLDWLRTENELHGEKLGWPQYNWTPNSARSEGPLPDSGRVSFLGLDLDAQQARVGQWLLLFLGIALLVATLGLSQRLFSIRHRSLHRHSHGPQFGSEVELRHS

T1 sequence (P12821 30-1306, species assumed): as the sequence (P12821 30-1306) above
angiotensin I-converting enzyme (ACE), sequence (P12821 30-1306, species assumed): as the sequence (P12821 30-1306) above

As for `CC(C)C[C@H](NC(=O)[C@H](C)N)C(=O)N[C@H](C(=O)N[C@@H](Cc1ccc(O)cc1)C(=O)O)C(C)C` [ALVY] (H-ALVY-OH), the IC50 in assay [1] amounted to 7.03 ± 0.09 µM. The “Effect on Km” value at ACE [2] is given as “increased with the increasing peptide concentration”.
Turning to LLAPHY [LLAPHY], in assay [1], the IC50 was 15.9 ± 0.52 µM.
For the molecule “FHAPWK [peptide from Cassia obtusifolia seeds]”, the IC50 with ACE [3] (Cassia obtusifolia seeds, read-out: IC50 (Cassia obtusifolia seeds peptide)) is 16.8 µM.
LSTSTDVR-OH [LSTSTDVR]: the IC50 in assay [1] was greater than 167 µM.
As for “VSGAGRY [peptide from bitter melon seeds]”, the IC50 in the assay with ACE [3] (bitter melon seeds, read-out: IC50 (bitter melon seeds peptide)) is 8.6 µM.
As for `CC(C)C[C@H](NC(=O)[C@@H](N)CC(C)C)C(=O)N[C@H](C(=O)N[C@@H](Cc1ccc(O)cc1)C(=O)O)C(C)C` [LLVY] (H-LLVY-OH), the IC50 in assay [1] worked out at 87.8 ± 3.37 µM.
As for LLAPHY, the IC50 of ACE inhibitory activity (hydrolysis of hippuryl-L-histidyl-L-leucine by ACE, 37 °C, RP-HPLC read-out at 228 nm; synthetic peptide, nine concentrations) in assay [4] came out at 15.9 µM.
The same measure, in the same setting: the value for LLVY was 87.8 µM.
The same measure, in the same setting: the value for ALVY was 7.03 µM.
Same read-out and setting: the value for LSTSTDVR was greater than 167 µM.
